# Changes are numbered by the printed parent chain.
# B1: humanized ICR62 antibody I-HHB / I-KC (not glycoengineered) (antibody, human IgG1, V domains shown)
# VH: QVQLVQSGAEVKKPGSSVKVSCKGSGFTFTDYKIHWVRQAPGQGLEWMGYFNPNSGYSTYAQKFQGRVTITADKSTSTAYMELSSLRSEDTAVYYCARLSPGGYYVMDAWGQGTTVTVSS
# VL: DIQMTQSPSSLSASVGDRVTITCRASQGINNYLNWYQQKPGKAPKRLIYNTNNLQTGVPSRFSGSGSGTEFTLTISSLQPEDFATYYCLQHNSFPTFGQGTKLEIKR
# notes: also called I-HHB/KC
# B2: I-HHC heavy chain combined with the chimeric ICR62 light chain (rVL) (antibody, human IgG1, V domains shown)
# VH: B1 VH with A61N, Q62E, Q65K, G66S
# VL: DIQMTQSPSFLSASVGDRVTINCKASQNINNYLNWYQQKLGEAPKRLIYNTNNLQTGIPSRFSGSGSGTDYTLTISSLQPEDFATYFCLQHNSFPTFGAGTKLELKR
# notes: also called I-HHC / rVL
# B3: chimeric ICR62 heavy chain (rVH) combined with the I-KB light chain (antibody, human IgG1, V domains shown)
# VH: QVNLLQSGAALVKPGASVKLSCKGSGFTFTDYKIHWVKQSHGKSLEWIGYFNPNSGYSTYNEKFKSKATLTADKSTDTAYMELTSLTSEDSATYYCTRLSPGGYYVMDAWGQGASVTVSS
# VL: B1 VL with R24K, G28N, F71Y
# notes: also called rVH / I-KB
# B4: humanized ICR62 antibody I-HLA2 / I-KC (antibody, human IgG1, V domains shown)
# VH: QVQLVQSGAEVKKPGASVKVSCKASGFTFTDYYMHWVRQAPGQGLEWMGWINPNSGYSTYNEKFQGQVTISADKSISTAYLQWSSLKASDTAMYYCARLSPGGYYVMDAWGQGTTVTVSS
# VL: B1 VL
# B5: humanized ICR62 antibody I-HHD / I-KC5 (antibody, human IgG1, V domains shown)
# VH: B1 VH with G24A
# VL: B1 VL with T51A
# B6: humanized ICR62 antibody I-HLA8 / I-KC (antibody, human IgG1, V domains shown)
# VH: B1 VH with V2M, A9P, S16T, G24A
# VL: B1 VL
# B7: humanized ICR62 antibody I-HLA6 / I-KC (antibody, human IgG1, V domains shown)
# VH: B4 VH with V2M, A9P, A16T
# VL: B1 VL
# B8: humanized ICR62 antibody I-HHD / I-KC7 (antibody, human IgG1, V domains shown)
# VH: B1 VH with G24A
# VL: B1 VL with N53S
# B9: humanized ICR62 antibody I-HLA9 / I-KC (antibody, human IgG1, V domains shown)
# VH: B1 VH with Q1E, S16E, V18L, V20I, F27Y, T28S
# VL: B1 VL
# B10: humanized ICR62 antibody I-HHF / I-KC (antibody, human IgG1, V domains shown)
# VH: B1 VH with T59N
# VL: B1 VL
# B11: humanized ICR62 antibody I-HLA / I-KA (antibody, human IgG1, V domains shown)
# VH: QVQLVQSGAEVKKPGASVKVSCKASGFTFTDYYMHWVRQAPGQGLEWMGWINPNSGYSTYAQKFQGRVTMTADTSISTAYMELSRLRSDDTAVYYCARLSPGGYYVMDAWGQGTTVTVSS
# VL: B1 VL with F71Y
# B12: humanized ICR62 antibody I-HLA5 / I-KC (antibody, human IgG1, V domains shown)
# VH: B4 VH with V2M, A9P, A16T, N61S, E62P, K63S
# VL: B1 VL
# B13: humanized ICR62 antibody I-HHG / I-KC (antibody, human IgG1, V domains shown)
# VH: B1 VH with S58A
# VL: B1 VL
# B14: humanized ICR62 antibody I-HHD / I-KC9 (antibody, human IgG1, V domains shown)
# VH: B1 VH with G24A
# VL: B1 VL with F94Y
# B15: humanized ICR62 antibody I-HHD / I-KC2 (antibody, human IgG1, V domains shown)
# VH: B1 VH with G24A
# VL: B1 VL with Y32W
# B16: humanized ICR62 antibody I-HHD / I-KC6 (antibody, human IgG1, V domains shown)
# VH: B1 VH with G24A
# VL: B1 VL with N52S
# B17: humanized ICR62 antibody I-HLA4 / I-KC (antibody, human IgG1, V domains shown)
# VH: B4 VH with F27Y
# VL: B1 VL
# B18: humanized ICR62 antibody I-HLA7 / I-KC (antibody, human IgG1, V domains shown)
# VH: B4 VH with V2M, A9P, A16T, Y33K, M34I, P41R, G44R, M48I
# VL: B1 VL
# B19: humanized ICR62 antibody I-HHD / I-KC4 (antibody, human IgG1, V domains shown)
# VH: B1 VH with G24A
# VL: B1 VL with N50T
# B20: humanized ICR62 antibody I-HLA / I-KB (antibody, human IgG1, V domains shown)
# VH: B11 VH
# VL: B1 VL with R24K, G28N, F71Y
# B21: humanized ICR62 antibody I-HHD / I-KC3 (antibody, human IgG1, V domains shown)
# VH: B1 VH with G24A
# VL: B1 VL with N34G
# B22: humanized ICR62 antibody I-HLA1 / I-KC (antibody, human IgG1, V domains shown)
# VH: B4 VH with N61S, E62P, K63S
# VL: B1 VL
# B23: humanized ICR62 antibody I-HHD / I-KC8 (antibody, human IgG1, V domains shown)
# VH: B1 VH with G24A
# VL: B1 VL with T56S
# B24: humanized ICR62 antibody I-HLA3 / I-KC (antibody, human IgG1, V domains shown)
# VH: B4 VH with F27Y, N61S, E62P, K63S
# VL: B1 VL
# B25: humanized ICR62 antibody I-HHD / I-KC1 (antibody, human IgG1, V domains shown)
# VH: B1 VH with G24A
# VL: B1 VL with N30R
# notes: also called I-KCl
# B26: humanized ICR62 antibody I-HHC / I-KB (antibody, human IgG1, V domains shown)
# VH: B1 VH with A61N, Q62E, Q65K, G66S
# VL: B1 VL with R24K, G28N, F71Y
# B27: chimeric rat-human ICR62 antibody (antibody, V domains shown)
# VH: B3 VH
# VL: B2 VL
# notes: also called ch-ICR62; chimeric ICR62
# What was measured:
# [1] = molecular target: T1, human epidermal growth factor receptor (EGFR) (human, UniProt P00533 25-1210); assay: flow cytometry on A431 cells
# T1 construct: whole, on cells; also called HER-1; ErbB1
# Protocol: (§1) The purified, monomeric humanized antibody variants were tested for binding to human epidermal growth factor receptor (EGFR, also referred to in the literature as HER-1 or ErbB1) on the A431 human epidermal cell line, using a flow cytometry-based assay. 200,000 cells (e.g., from human A431 cell line) in 180 μl FACS buffer (PBS containing 2% FCS and 5 mM EDTA) were transferred to 5 ml polystyrene tubes and 20 μl 10 fold concentrated anti-EGFR antibody (primary antibody) samples (1-5000 ng/ml final concentration) or PBS only were added. After gently mixing the samples, the tubes were incubated at 4° C. for 30 min in the dark. Subsequently, samples were washed twice with FACS buffer and pelleted at 300×g for 3 min. Supernatant was aspirated off and cells were taken up in 50 μl FACS buffer and 2 μl secondary antibody (anti-Fc-specific F(ab′)2-FITC fragments (Jackson Immuno Research Laboratories, USA)) was added and the tubes were incubated at 4° C. for 30 min. Samples were washed twice with FACS buffer and taken up in 500 μl of FACS buffer for analysis by Flow Cytometry. Binding was determined by plotting the geometric mean fluorescence against the antibody concentrations.
# Only the I-HHA has strongly diminished binding activity (see FIG. 2). […] In this experiment, either the light chain, the heavy chain or both chains simultaneously of the ch-ICR62 were replaced by the above mentioned humanized constructs.
# [2] = molecular target: T1, human epidermal growth factor receptor …; assay: flow cytometry on A431 cells; chain swap with ch-ICR62 (FIG. 1)
# Protocol: as §1
# Only the I-HHA has strongly diminished binding activity (see FIG. 2). […]
# [3] = molecular target: T1, human epidermal growth factor receptor …; assay: flow cytometry on A431 cells; light chain variants paired with I-HHD
# Protocol: as §1
# Each of the I-KC variant constructs (I-KCl to I-KC9) was paired with a heavy chain variable region comprising construct I-HHD (SEQ ID NO:16 and SEQ ID NO:15) and a binding assay performed according to the methods described in the previous examples. Constructs I-KCl to I-KC9 were compared to the I-KC construct (SEQ ID NO:46 and SEQ ID NO:45) for binding affinity to EGFR in A431 target cells (FIG. 29). […] Therefore, when paired with a chimeric (e.g., humanized) heavy chain construct specific for EGFR, the light chain can be entirely human (e.g., from a human light chain V gene sequence) and still retain specific binding for EGFR. In particular, CDR2 and CDR3 can be entirely in human germline form.
# [4] = molecular target: T1, human epidermal growth factor receptor …; assay: flow cytometry on A431 cells (FIG. 4)
# Protocol: as §1
# FIGS. 4 and 5 compare the constructs of the series I-HLA1, I-HLA2, I-HLA3, I-HLA4, I-HLA5, and I-HLA6. […]
binder,measurement,setting,value
B1,binding result,[1],binds
B2,binding result,[1],binds
B3,binding result,[2],binds
B4,EC50,[1],~0.3 µg/mL
B5,binding result,[3],binds
B6,EC50 fold decrease relative to ch-ICR62,[1],2 fold
B7,"EC50 fold increase relative to ch-ICR62, I-HLA1 and I-HLA2",[1],2 fold
B8,binding result,[3],binds
B9,binding result,[1],binds
B10,binding result,[1],binds
B11,binding result,[1],binds
B12,"EC50 fold increase relative to ch-ICR62, I-HLA1 and I-HLA2",[1],2 fold
B13,binding result,[1],binds
B14,binding result,[3],binds
B15,binding result,[3],binds
B16,binding result,[3],binds
B17,"EC50 fold increase relative to ch-ICR62, I-HLA1 and I-HLA2",[1],2 fold
B18,binding result,[1],binds
B19,binding result,[3],binds
B20,binding result,[1],binds
B21,EC50 fold increase relative to the I-KC construct,[3],10 fold
B22,EC50,[1],~0.3 µg/mL
B23,binding result,[3],binds
B24,"EC50 fold increase relative to ch-ICR62, I-HLA1 and I-HLA2",[1],2 fold
B25,binding result,[3],binds
B26,binding result,[1],binds
B27,EC50,[1],~0.3 µg/mL
same,EC50 fold lower relative to I-HLA4,[4],2 fold
